For 4 substances, Kd and OD450 results are on record in US20140072581A1.

The target of experiment [1] is Tissue factor (TF) (UniProt P13726). As to the kind of experiment: SPR; storage 7 d RT; SD 2.E-11; control row printed a second time. A general note: SPR reads the build-up and loss of mass on a sensor chip optically.
Experiment [2] shares this target. As to the kind of experiment: SPR; Fab captured on anti-hIgG chip, TF flowed over at 300 nM.
Experiment [3] shares this target. As to the kind of experiment: SPR; average of measurements with different directionality.
The target is the same in experiment [4]. As to the kind of experiment: SPR; storage 7 d RT; SD 2.E-11.
The target of experiment [5] is HER2 (UniProt P04626). In words: SPR; average of measurements with different directionality.
Experiment [6] has as its target HER2 (UniProt P04626). As to the kind of experiment: SPR; storage 7 d RT; SD 1.E-10.
Experiment [7] deals with HER2 (UniProt P04626). In words: SPR; storage 7 d RT; SD 1.E-10; control row printed a second time.
The target of experiment [8] is HER2 (UniProt P04626). In words: SPR; storage -80 (fresh protein); SD 1.E-10; control row printed a second time.
Experiment [9] has as its target HER2 (UniProt P04626). In words: SPR; storage -80 (fresh protein); SD 1.E-10.
The target of experiment [10] is CD3 on HBP-ALL (CD3+) cells (UniProt P07766). In words: live cell ELISA on HBP-ALL (CD3+) cells; OD450 grade at 1/60 dilution. (In an ELISA, binding on a coated surface is turned into a signal by an enzyme label.)
Experiment [11] addresses CD19 on RAJI (CD19+) cells (UniProt P15391). As to the kind of experiment: live cell ELISA on RAJI (CD19+) cells; legend: OD450 below 0.100 at 1/60 dilution, but higher dilutions positive (higher than neg control).

Usually Kd stands for the free concentration of one partner at which half of the binding sites on the other are occupied at equilibrium, for simple one-to-one binding. High values mean a looser complex, low ones a tighter complex. For Fab D3H44 (control), variant 696, the dissociation constant (Kd) in experiment [1] was 0.08 nM; in experiment [2], 0.0152 nM; in experiment [3], 0.0515 nM; in [4] it was 0.08 nM.

As to Fab 4D5 (control), variant 695, the Kd in [5] is 0.837 nM; in experiment [6], 0.8 nM; in experiment [7] it was 0.8 nM; in experiment [8], 0.6 nM; in [9] it was 0.6 nM.

“Variant 506, control antibody that binds HER2, based on the sequence of Herceptin” displayed a Kd in experiment [5] of 0.527 nM.

As for “teplizumab-hOKT3-CD3 FSA, variant 2177 (antibody)”, the OD450 at 1/60 dilution in experiment [10] is greater than 2 od; in experiment [11] it was less than 0.1 od.
